Reference: paper PMC4623604, “Discovery of Small Molecules that Inhibit the Disordered Protein, p27^Kip1” (Scientific Reports, 2015)
Where no end group is shown, it is not given here.

Biological target: Cdk2/cyclin A complex (human, UniProt P24941 1-298; P20248 173-432)
Assay: fluorescence polarisation; fluorescence anisotropy; Cdk2/cyclin A binding to p27-D2-FL (20 nM); 25 °C; 20 mM Na phosphate, pH 7, 200 mM NaCl, 3.5 mM TCEP; non-linear regression on the average of three experiments
Conditions: both partners purified

Kd: 0.073 ± 0.008 µM
B1: p27-D2-FL (p27-D2-C99S-R93C labeled with Alexa Fluor 488) (domain or fragment)
chain: RKWNFDFQNHKPLEGKYEWQEVEKGSLPEFYYRPPC(Alexa Fluor 488 C5‑maleimide)PPKGASKVPAQE
notes: p27Kip1 (p27; CDKN1B), human, D2 sub-domain construct, residues 58-105; Cloned in pET28a; also called single-cysteine mutant of p27-D2; source: conjugated with Alexa Fluor488-C5-Maleimide and purified again by HPLC; not shown: 6xHis, N-terminal, cleaved
